Measured values taken from US20230158141A1 (YAFEI SHANGHAI BIOLOG MEDICINE SCIENCE AND TECHNOLOGY, published 2023).

T1: IL-10R1-Fc (UniProt Q13651 22-235, limits assumed)
T1 sequence (looked up): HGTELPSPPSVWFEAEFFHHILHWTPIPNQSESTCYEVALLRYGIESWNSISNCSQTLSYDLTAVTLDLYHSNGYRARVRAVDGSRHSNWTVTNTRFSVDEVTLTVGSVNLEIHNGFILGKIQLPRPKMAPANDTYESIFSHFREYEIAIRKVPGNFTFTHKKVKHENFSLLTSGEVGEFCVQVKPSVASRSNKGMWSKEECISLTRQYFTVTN


Molecular target: T1, IL-10R1-Fc
Assay: ELISA, IL-10R1-Fc coated

Binder	Decreased fold of binding to ligand after Conjugating with S48	Binding recovery (>60%)
IL-10 Leu131Cys-S48 (ligand, human, UniProt P22301 19-178, looked up, S48 on Cys 131, mature) SPGQGTQSENSCTHFPGNLPNMLRDLRDAFSRVKTFFQMKDQLDNLLLKESLLEDFKGYLGCQALSEMIQFYLEEVMPQAENQDPDIKAHVNSLGENLKTLRLRLRRCHRFLPCENKSKAVEQVKNAFNKCQEKGIYKAMSEFDIFINYIEAYMTMKIRN	5 fold	–
IL-10 Phe30Cys-R4-8 (ligand, human, UniProt P22301 19-178, looked up, R4-8 on Cys 30, mature) SPGQGTQSENSCTHFPGNLPNMLRDLRDACSRVKTFFQMKDQLDNLLLKESLLEDFKGYLGCQALSEMIQFYLEEVMPQAENQDPDIKAHVNSLGENLKTLRLRLRRCHRFLPCENKSKAVEQVKNAFNKLQEKGIYKAMSEFDIFINYIEAYMTMKIRN	–	97.1%
IL-10 Phe143Cys-R4-8 (ligand, human, UniProt P22301 19-178, looked up, R4-8 on Cys 143, mature) SPGQGTQSENSCTHFPGNLPNMLRDLRDAFSRVKTFFQMKDQLDNLLLKESLLEDFKGYLGCQALSEMIQFYLEEVMPQAENQDPDIKAHVNSLGENLKTLRLRLRRCHRFLPCENKSKAVEQVKNAFNKLQEKGIYKAMSECDIFINYIEAYMTMKIRN	–	69%
IL-10 Lys134Cys-S48 (ligand, human, UniProt P22301 19-178, looked up, S48 on Cys 134, mature) SPGQGTQSENSCTHFPGNLPNMLRDLRDAFSRVKTFFQMKDQLDNLLLKESLLEDFKGYLGCQALSEMIQFYLEEVMPQAENQDPDIKAHVNSLGENLKTLRLRLRRCHRFLPCENKSKAVEQVKNAFNKLQECGIYKAMSEFDIFINYIEAYMTMKIRN	5 fold	–
IL-10 Ser11Cys-R4-7 (ligand, human, UniProt P22301 19-178, looked up, R4-7 on Cys 11, mature) SPGQGTQSENCCTHFPGNLPNMLRDLRDAFSRVKTFFQMKDQLDNLLLKESLLEDFKGYLGCQALSEMIQFYLEEVMPQAENQDPDIKAHVNSLGENLKTLRLRLRRCHRFLPCENKSKAVEQVKNAFNKLQEKGIYKAMSEFDIFINYIEAYMTMKIRN	–	133%
IL-10 Phe111Cys-R4-8 (ligand, human, UniProt P22301 19-178, looked up, R4-8 on Cys 111, mature) SPGQGTQSENSCTHFPGNLPNMLRDLRDAFSRVKTFFQMKDQLDNLLLKESLLEDFKGYLGCQALSEMIQFYLEEVMPQAENQDPDIKAHVNSLGENLKTLRLRLRRCHRCLPCENKSKAVEQVKNAFNKLQEKGIYKAMSEFDIFINYIEAYMTMKIRN	–	90.1%
IL-10 Met39Cys-R4-1 (ligand, human, UniProt P22301 19-178, looked up, R4-1 on Cys 39, mature) SPGQGTQSENSCTHFPGNLPNMLRDLRDAFSRVKTFFQCKDQLDNLLLKESLLEDFKGYLGCQALSEMIQFYLEEVMPQAENQDPDIKAHVNSLGENLKTLRLRLRRCHRFLPCENKSKAVEQVKNAFNKLQEKGIYKAMSEFDIFINYIEAYMTMKIRN	–	88%
IL-10 Ser11Cys-S48 (ligand, human, UniProt P22301 19-178, looked up, S48 on Cys 11, mature) SPGQGTQSENCCTHFPGNLPNMLRDLRDAFSRVKTFFQMKDQLDNLLLKESLLEDFKGYLGCQALSEMIQFYLEEVMPQAENQDPDIKAHVNSLGENLKTLRLRLRRCHRFLPCENKSKAVEQVKNAFNKLQEKGIYKAMSEFDIFINYIEAYMTMKIRN	9 fold	–
IL-10 Phe30Cys-S48 (ligand, human, UniProt P22301 19-178, looked up, S48 on Cys 30, mature) SPGQGTQSENSCTHFPGNLPNMLRDLRDACSRVKTFFQMKDQLDNLLLKESLLEDFKGYLGCQALSEMIQFYLEEVMPQAENQDPDIKAHVNSLGENLKTLRLRLRRCHRFLPCENKSKAVEQVKNAFNKLQEKGIYKAMSEFDIFINYIEAYMTMKIRN	6 fold	–
IL-10 Lys157Cys-R4-7 (ligand, human, UniProt P22301 19-178, looked up, R4-7 on Cys 157, mature) SPGQGTQSENSCTHFPGNLPNMLRDLRDAFSRVKTFFQMKDQLDNLLLKESLLEDFKGYLGCQALSEMIQFYLEEVMPQAENQDPDIKAHVNSLGENLKTLRLRLRRCHRFLPCENKSKAVEQVKNAFNKLQEKGIYKAMSEFDIFINYIEAYMTMCIRN	–	98.6%
IL-10 Met39Cys-S48 (ligand, human, UniProt P22301 19-178, looked up, S48 on Cys 39, mature) SPGQGTQSENSCTHFPGNLPNMLRDLRDAFSRVKTFFQCKDQLDNLLLKESLLEDFKGYLGCQALSEMIQFYLEEVMPQAENQDPDIKAHVNSLGENLKTLRLRLRRCHRFLPCENKSKAVEQVKNAFNKLQEKGIYKAMSEFDIFINYIEAYMTMKIRN	62 fold	–
IL-10 Lys138Cys-S48 (ligand, human, UniProt P22301 19-178, looked up, S48 on Cys 138, mature) SPGQGTQSENSCTHFPGNLPNMLRDLRDAFSRVKTFFQMKDQLDNLLLKESLLEDFKGYLGCQALSEMIQFYLEEVMPQAENQDPDIKAHVNSLGENLKTLRLRLRRCHRFLPCENKSKAVEQVKNAFNKLQEKGIYCAMSEFDIFINYIEAYMTMKIRN	23 fold	–
IL-10 Ser51Cys-R4-7 (ligand, human, UniProt P22301 19-178, looked up, R4-7 on Cys 51, mature) SPGQGTQSENSCTHFPGNLPNMLRDLRDAFSRVKTFFQMKDQLDNLLLKECLLEDFKGYLGCQALSEMIQFYLEEVMPQAENQDPDIKAHVNSLGENLKTLRLRLRRCHRFLPCENKSKAVEQVKNAFNKLQEKGIYKAMSEFDIFINYIEAYMTMKIRN	–	96.7%
IL-10 Phe111Cys-S48 (ligand, human, UniProt P22301 19-178, looked up, S48 on Cys 111, mature) SPGQGTQSENSCTHFPGNLPNMLRDLRDAFSRVKTFFQMKDQLDNLLLKESLLEDFKGYLGCQALSEMIQFYLEEVMPQAENQDPDIKAHVNSLGENLKTLRLRLRRCHRCLPCENKSKAVEQVKNAFNKLQEKGIYKAMSEFDIFINYIEAYMTMKIRN	12 fold	–
IL-10 Lys134Cys-R4-7 (ligand, human, UniProt P22301 19-178, looked up, R4-7 on Cys 134, mature) SPGQGTQSENSCTHFPGNLPNMLRDLRDAFSRVKTFFQMKDQLDNLLLKESLLEDFKGYLGCQALSEMIQFYLEEVMPQAENQDPDIKAHVNSLGENLKTLRLRLRRCHRFLPCENKSKAVEQVKNAFNKLQECGIYKAMSEFDIFINYIEAYMTMKIRN	–	128%
IL-10 Met140Cys-S48 (ligand, human, UniProt P22301 19-178, looked up, S48 on Cys 140, mature) SPGQGTQSENSCTHFPGNLPNMLRDLRDAFSRVKTFFQMKDQLDNLLLKESLLEDFKGYLGCQALSEMIQFYLEEVMPQAENQDPDIKAHVNSLGENLKTLRLRLRRCHRFLPCENKSKAVEQVKNAFNKLQEKGIYKACSEFDIFINYIEAYMTMKIRN	3 fold	–
IL-10 Lys138Cys-R4-7 (ligand, human, UniProt P22301 19-178, looked up, R4-7 on Cys 138, mature) SPGQGTQSENSCTHFPGNLPNMLRDLRDAFSRVKTFFQMKDQLDNLLLKESLLEDFKGYLGCQALSEMIQFYLEEVMPQAENQDPDIKAHVNSLGENLKTLRLRLRRCHRFLPCENKSKAVEQVKNAFNKLQEKGIYCAMSEFDIFINYIEAYMTMKIRN	–	97.6%
IL-10 Phe143Cys-S48 (ligand, human, UniProt P22301 19-178, looked up, S48 on Cys 143, mature) SPGQGTQSENSCTHFPGNLPNMLRDLRDAFSRVKTFFQMKDQLDNLLLKESLLEDFKGYLGCQALSEMIQFYLEEVMPQAENQDPDIKAHVNSLGENLKTLRLRLRRCHRFLPCENKSKAVEQVKNAFNKLQEKGIYKAMSECDIFINYIEAYMTMKIRN	7 fold	–
IL-10 Met140Cys-R4-1 (ligand, human, UniProt P22301 19-178, looked up, R4-1 on Cys 140, mature) SPGQGTQSENSCTHFPGNLPNMLRDLRDAFSRVKTFFQMKDQLDNLLLKESLLEDFKGYLGCQALSEMIQFYLEEVMPQAENQDPDIKAHVNSLGENLKTLRLRLRRCHRFLPCENKSKAVEQVKNAFNKLQEKGIYKACSEFDIFINYIEAYMTMKIRN	–	89%
IL-10 Ser8Cys-R4-5 (ligand, human, UniProt P22301 19-178, looked up, R4-5 on Cys 8, mature) SPGQGTQCENSCTHFPGNLPNMLRDLRDAFSRVKTFFQMKDQLDNLLLKESLLEDFKGYLGCQALSEMIQFYLEEVMPQAENQDPDIKAHVNSLGENLKTLRLRLRRCHRFLPCENKSKAVEQVKNAFNKLQEKGIYKAMSEFDIFINYIEAYMTMKIRN	–	100%
IL-10 Lys117Cys-R4-7 (ligand, human, UniProt P22301 19-178, looked up, R4-7 on Cys 117, mature) SPGQGTQSENSCTHFPGNLPNMLRDLRDAFSRVKTFFQMKDQLDNLLLKESLLEDFKGYLGCQALSEMIQFYLEEVMPQAENQDPDIKAHVNSLGENLKTLRLRLRRCHRFLPCENCSKAVEQVKNAFNKLQEKGIYKAMSEFDIFINYIEAYMTMKIRN	–	117%
IL-10 Ser8Cys-S48 (ligand, human, UniProt P22301 19-178, looked up, S48 on Cys 8, mature) SPGQGTQCENSCTHFPGNLPNMLRDLRDAFSRVKTFFQMKDQLDNLLLKESLLEDFKGYLGCQALSEMIQFYLEEVMPQAENQDPDIKAHVNSLGENLKTLRLRLRRCHRFLPCENKSKAVEQVKNAFNKLQEKGIYKAMSEFDIFINYIEAYMTMKIRN	3 fold	–
IL-10 Lys117Cys-S48 (ligand, human, UniProt P22301 19-178, looked up, S48 on Cys 117, mature) SPGQGTQSENSCTHFPGNLPNMLRDLRDAFSRVKTFFQMKDQLDNLLLKESLLEDFKGYLGCQALSEMIQFYLEEVMPQAENQDPDIKAHVNSLGENLKTLRLRLRRCHRFLPCENCSKAVEQVKNAFNKLQEKGIYKAMSEFDIFINYIEAYMTMKIRN	3 fold	–
IL-10 Lys49Cys-S48 (ligand, human, UniProt P22301 19-178, looked up, S48 on Cys 49, mature) SPGQGTQSENSCTHFPGNLPNMLRDLRDAFSRVKTFFQMKDQLDNLLLCESLLEDFKGYLGCQALSEMIQFYLEEVMPQAENQDPDIKAHVNSLGENLKTLRLRLRRCHRFLPCENKSKAVEQVKNAFNKLQEKGIYKAMSEFDIFINYIEAYMTMKIRN	7 fold	–
IL-10 Lys157Cys-S48 (ligand, human, UniProt P22301 19-178, looked up, S48 on Cys 157, mature) SPGQGTQSENSCTHFPGNLPNMLRDLRDAFSRVKTFFQMKDQLDNLLLKESLLEDFKGYLGCQALSEMIQFYLEEVMPQAENQDPDIKAHVNSLGENLKTLRLRLRRCHRFLPCENKSKAVEQVKNAFNKLQEKGIYKAMSEFDIFINYIEAYMTMCIRN	3 fold	–
IL-10 Lys49Cys-R4-5 (ligand, human, UniProt P22301 19-178, looked up, R4-5 on Cys 49, mature) SPGQGTQSENSCTHFPGNLPNMLRDLRDAFSRVKTFFQMKDQLDNLLLCESLLEDFKGYLGCQALSEMIQFYLEEVMPQAENQDPDIKAHVNSLGENLKTLRLRLRRCHRFLPCENKSKAVEQVKNAFNKLQEKGIYKAMSEFDIFINYIEAYMTMKIRN	–	114%
